Data from patent US20110076279A1 (SCHERING, published 2011).
Substitutions are numbered along the chain they refer to.

B1: XPA.10.072 scFv (scFv, part only; not given: linker, domain order, tags, V domains shown, not shown: another chain or arm of the molecule; large carriers; small tags and cut ends)
VH: RLQLVQSGAEVRKPGASVKVSCKASGYSFTGHYIHWARQAPGQGLEWMGWINPYSGGTNFPREFQGRVTMTRDTSVNTVYMELTRLTSDDTSVYYCARDHRIVGGLDYWGQGTLVTVSS
VL: QSVLTQPPSASGTPGQRVTISCSGSSSNLGSNFVYWYQQLPGTAPKLLIYRNHQRPSGVPDRFSGSKSGTSASLAISGLRSEDEADYYCASWDDSLRVVVFGGGTKLTVL
B2: XPA.10.064 IgG2 (antibody, V domains shown)
VH: B1 VH with R1E, L2V, A37V
VL: B1 VL with Q1S, S2Y, L29I, S31I, F33Y, H53D, S91T, R97S, V98G, L107V
notes: Fully human antibody from an scFv phage library, converted to IgG2 (gamma-2 heavy chain constant region); also called VPA.10.064
B3: XPA.10.064 scFv-Fc (Fc fusion, not shown: a dimerising Fc or GST; small tags and cut ends)
VH: B1 VH with R1E, L2V, A37V
VL: B1 VL with Q1S, S2Y, L29I, S31I, F33Y, H53D, S91T, R97S, V98G, L107V
B4: XPA.10.064 scFv (scFv, part only; not given: linker, domain order, tags, V domains shown, not shown: another chain or arm of the molecule; large carriers; small tags and cut ends)
VH: B1 VH with R1E, L2V, A37V
VL: B1 VL with Q1S, S2Y, L29I, S31I, F33Y, H53D, S91T, R97S, V98G, L107V
B5: XPA.10.072 IgG2 (antibody, V domains shown)
VH: B1 VH
VL: B1 VL
notes: Fully human antibody from an scFv phage library, converted to IgG2 (gamma-2 heavy chain constant region); also called XPA.072; VPA.10.072
B6: XPA.10.072 scFv-Fc (Fc fusion, not shown: a dimerising Fc or GST; small tags and cut ends)
VH: B1 VH
VL: B1 VL

Key:
human VEGF165 (hVEGF165) [1] = target: T1, human VEGF165 (hVEGF165) (human, UniProt P15692 207-395); experiment: DELFIA competition, biotinylated hVEGF165 0.5 µg/ml plus periplasmic scFv on VEGF-R1 or VEGF-R2 coated plate
human VEGF165 (hVEGF165) [2] = target: T1, human VEGF165 (hVEGF165); experiment: Biacore, IgG2 (summary table)
Method: Dilution and running buffer for these experiments was HBS-EP (Biacore) with 1:50 dilution of Chemiblocker® (Chemicon). […] Antibody concentrations were approximately 0.5 μg/ml. hVEGF₁₆₅ expressed from sf21 cells was injected over five minutes at 30 μl/minute using the Kinject feature with 15 minute dissociation over fc1 and 2. […] Regenerations were performed with two injections of 100 mM HCl at 50 μl/minutes for twelve seconds each. Data was processed in Scrubber2 and fit by a 1:1 Langmuir interaction model after double referencing of the control flow cell and blank injections.

[3] = target: T2, murine VEGF165 (mVEGF165) (murine, UniProt Q00731-2 27-190); experiment: sandwich ELISA, antibody coated 5 ug/ml; sandwich ELISA, Ab coated at 5 ug/ml, murine VEGF165 at 1 ug/ml; signal at background, i.e. no binding
T2 construct: also called rMu-VEGF165; recombinant mVEGF165
T2 sequence (looked up): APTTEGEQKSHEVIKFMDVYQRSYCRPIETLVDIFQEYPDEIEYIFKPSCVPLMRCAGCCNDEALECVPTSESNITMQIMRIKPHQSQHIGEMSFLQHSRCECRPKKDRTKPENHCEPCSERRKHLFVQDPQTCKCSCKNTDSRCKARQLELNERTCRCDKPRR
Method: (§1) The plate was blocked with 30% ChemiBlock™ reagent (Millipore) in PBS for one hour at room temperature, and 30, 60, or 100 μl of CHO-K1 culture supernatant for each mutant, or 1 μg/ml of wild-type hVEGF₁₂₁, recombinant hVEGF₁₆₅, or recombinant mVEGF₁₆₅, was added to appropriate wells. After one hour of incubation, the plate was washed and incubated with a biotinylated goat polyclonal anti-VEGF antibody for one hour at room temperature. Detection was performed with HRP-conjugated streptavidin, followed by TMB chromogenic substrate (Calbiochem) using manufacturer protocol.

hVEGF121-G88S = target: T3, hVEGF121-G88S (human, UniProt P15692-9 27-147, G88S); experiment: sandwich ELISA, antibody coated 5 ug/ml
T3 construct: Transiently expressed in CHO-K1 cells; culture supernatant used
T3 sequence (looked up): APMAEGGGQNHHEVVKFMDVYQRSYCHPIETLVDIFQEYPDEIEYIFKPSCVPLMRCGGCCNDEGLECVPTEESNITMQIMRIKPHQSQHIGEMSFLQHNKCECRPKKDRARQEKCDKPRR
Method: as §1

hVEGF121-G92A = target: T4, hVEGF121-G92A (human, UniProt P15692-9 27-147, G92A); experiment: sandwich ELISA, antibody coated 5 ug/ml
T4 construct: Transiently expressed in CHO-K1 cells; culture supernatant used
T4 sequence (looked up): T3 sequence (looked up) with S88G, G92A
Method: as §1

wild-type hVEGF121 = target: T5, wild-type hVEGF121 (human, UniProt P15692-9 27-147); experiment: sandwich ELISA, antibody coated 5 ug/ml
T5 construct: Isoform VEGF121 of P15692
T5 sequence (looked up): T3 sequence (looked up) with S88G
Method: as §1

hVEGF121-M81A = target: T6, hVEGF121-M81A (human, UniProt P15692-9 27-147); experiment: sandwich ELISA, antibody coated 5 ug/ml
T6 construct: Transiently expressed in CHO-K1 cells; culture supernatant used
T6 sequence (looked up): T3 sequence (looked up) with M81A, S88G
Method: as §1

hVEGF121-Q89A = target: T7, hVEGF121-Q89A (human, UniProt P15692-9 27-147, Q89A); experiment: sandwich ELISA, antibody coated 5 ug/ml
T7 construct: Transiently expressed in CHO-K1 cells; culture supernatant used
T7 sequence (looked up): T3 sequence (looked up) with S88G, Q89A
Method: as §1

human VEGF165 (hVEGF165) [4] = target: T1, human VEGF165 (hVEGF165); experiment: sandwich ELISA, antibody coated 5 ug/ml
Method: as §1

human VEGF165 (hVEGF165) [5] = target: T1, human VEGF165 (hVEGF165); experiment: Biacore
human VEGF165 (hVEGF165) [6] = target: T1, human VEGF165 (hVEGF165); experiment: cell-based or functional assay
human VEGF165 (hVEGF165) [7] = target: T1, human VEGF165 (hVEGF165); experiment: cell-based or functional assay; remark: listed apart in the source

Binder | percent inhibition of hVEGF165 binding to receptor (human VEGF165 (hVEGF165) [1]) [%] | Kd (human VEGF165 (hVEGF165) [2]) [nM] | fold over background [3] [fold] | fold over background (hVEGF121-G88S) [fold] | fold over background (hVEGF121-G92A) [fold] | fold over background (wild-type hVEGF121) [fold] | fold over background (hVEGF121-M81A) [fold] | fold over background (hVEGF121-Q89A) [fold] | fold over background (human VEGF165 (hVEGF165) [4]) [fold] | off-rate relative to Bevacizumab (human VEGF165 (hVEGF165) [5]) [fold] | Inhibition of HUVEC proliferation, HEK 293 hVEGF165, EC50 (human VEGF165 (hVEGF165) [6]) [µg/mL] | IC50 (human VEGF165 (hVEGF165) [7]) [µg/mL]
B1 | > 60 |  |  |  |  |  |  |  |  |  |  | 
B2 |  | 1.5 | 0.7 | 0.9 | 22.8 | 29.1 | 9.5 | 3.5 | 23 | ~2 | 0.66 | 
B3 |  |  |  |  |  |  |  |  |  |  |  | 0.41
B4 | > 60 |  |  |  |  |  |  |  |  |  |  | 
B5 |  | 1.7 | 1.1 | 1 | 30.5 | 31.8 | 13.4 | 3.3 | 29.2 | ~2 | 0.68 | 
B6 |  |  |  |  |  |  |  |  |  |  |  | > 1
